Molecular target: c-Met on MKN45 gastric cancer cells / Caki-1 kidney cancer cells (human) (UniProt P08581)
Assay: cell-based or functional assay

Chain of UniProt P08581 (P08581 25-1390): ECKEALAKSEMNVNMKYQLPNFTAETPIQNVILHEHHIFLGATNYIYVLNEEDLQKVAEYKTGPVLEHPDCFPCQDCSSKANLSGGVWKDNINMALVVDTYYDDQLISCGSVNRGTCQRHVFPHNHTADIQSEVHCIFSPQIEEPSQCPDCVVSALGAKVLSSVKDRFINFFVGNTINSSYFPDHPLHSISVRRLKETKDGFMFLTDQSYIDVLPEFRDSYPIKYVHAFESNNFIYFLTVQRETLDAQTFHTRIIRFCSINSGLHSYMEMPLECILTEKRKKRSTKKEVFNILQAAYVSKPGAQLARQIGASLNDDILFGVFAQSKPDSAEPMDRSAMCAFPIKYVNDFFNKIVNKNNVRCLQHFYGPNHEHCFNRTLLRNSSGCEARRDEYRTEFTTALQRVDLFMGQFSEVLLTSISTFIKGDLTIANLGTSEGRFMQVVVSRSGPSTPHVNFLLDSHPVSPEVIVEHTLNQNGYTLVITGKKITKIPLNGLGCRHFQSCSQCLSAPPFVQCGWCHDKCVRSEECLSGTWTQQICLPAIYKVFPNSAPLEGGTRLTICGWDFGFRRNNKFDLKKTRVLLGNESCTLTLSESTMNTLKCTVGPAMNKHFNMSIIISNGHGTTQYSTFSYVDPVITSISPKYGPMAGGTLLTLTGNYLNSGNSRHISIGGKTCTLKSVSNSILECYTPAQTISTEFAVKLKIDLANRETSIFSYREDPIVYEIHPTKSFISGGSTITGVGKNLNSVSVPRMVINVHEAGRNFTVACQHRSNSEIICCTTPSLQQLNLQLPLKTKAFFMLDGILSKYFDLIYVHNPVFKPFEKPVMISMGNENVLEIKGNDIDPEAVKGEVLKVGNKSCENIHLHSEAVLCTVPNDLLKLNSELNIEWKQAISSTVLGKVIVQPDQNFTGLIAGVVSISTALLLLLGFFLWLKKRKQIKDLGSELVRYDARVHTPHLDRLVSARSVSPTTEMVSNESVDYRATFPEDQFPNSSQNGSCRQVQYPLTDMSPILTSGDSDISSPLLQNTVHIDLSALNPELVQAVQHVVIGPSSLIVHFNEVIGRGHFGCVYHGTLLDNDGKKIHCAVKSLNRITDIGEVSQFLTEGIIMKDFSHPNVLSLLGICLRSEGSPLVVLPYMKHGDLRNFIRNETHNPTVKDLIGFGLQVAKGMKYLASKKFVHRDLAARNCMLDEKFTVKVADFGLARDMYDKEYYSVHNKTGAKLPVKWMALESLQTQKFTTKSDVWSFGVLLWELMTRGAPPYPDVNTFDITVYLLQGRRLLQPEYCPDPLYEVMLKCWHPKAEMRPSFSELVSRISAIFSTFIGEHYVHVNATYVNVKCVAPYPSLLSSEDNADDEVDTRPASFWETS

5D5 (antibody)
Akt phosphorylation (Ser473), phospho-AKT1 sandwich ELISA, Caki-1 cells (reference set to 100%): 100%
